The text below walks through data of article PMC4503226 (FASEB journal : official publication of the Federation of …, 2011).

The series concerns the molecule itself. The series can be described thus: FRET or BRET. A general note: In BRET a luciferase serves as donor, and the signal depends on an acceptor being close.

B1: hOCT2 tagged with CFP or YFP at the N terminus (natural protein)
chain: MPTTVDDVLEHGGEFHFFQKQMFFLLALLSATFAPIYVGIVFLGFTPDHRCRSPGVAELSLRCGWSPAEELNYTVPGPGPAGEASPRQCRRYEVDWNQSTFDCVDPLASLDTNRSRLPLGPCRDGWVYETPGSSIVTEFNLVCANSWMLDLFQSSVNVGFFIGSMSIGYIADRFGRKLCLLTTVLINAAAGVLMAISPTYTWMLIFRLIQGLVSKAGWLIGYILITEFVGRRYRRTVGIFYQVAYTVGLLVLAGVAYALPHWRWLQFTVSLPNFFFLLYYWCIPESPRWLISQNKNAEAMRIIKHIAKKNGKSLPASLQRLRLEEETGKKLNPSFLDLVRTPQIRKHTMILMYNWFTSSVLYQGLIMHMGLAGDNIYLDFFYSALVEFPAAFMIILTIDRIGRRYPWAASNMVAGAACLASVFIPGDLQWLKIIISCLGRMGITMAYEIVCLVNAELYPTFIRNLGVHICSSMCDIGGIITPFLVYRLTNIWLELPLMVFGVLGLVAGGLVLLLPETKGKALPETIEEAENMQRPRKNKEKMIYLQVQKLDIPLN
Turning to B1, the NFRET worked out at 0.176.
